57 sequences from the supplement of paper PMC10598134 can be followed below.

± gives the standard deviation.

The data set can be described thus: collision cross section of modified peptide (TIMS, N2, iRT-aligned); higher = larger / more extended gas-phase ion. The essentials: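 Values are averages of 1–3 technical replicates of the most abundant feature for each charge state. Collision cross section was obtained from the Mason-Schamp equation after 1/K0 calibration with three reference ions and run-wise alignment to the median iRT peptide deviation. Synthetic peptide pools (iRT standard spiked 1:40) were separated on a 120-min nanoflow C18 gradient at 60 °C, analysed on a timsTOF Pro/HT (dda-PASEF, nitrogen, ~2.4 mbar) and identified with MaxQuant.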

Where [1] appears, read: charge state: 2, modification: Malonyl.
Where [2] appears, read: charge state: 2, modification: Formyl.
Setting [3] is: charge state: 3, modification: Formyl.
Setting [4] is: charge state: 3, modification: Malonyl.
[5] abbreviates: charge state: 2, modification: Crotonyl.
Where [6] appears, read: charge state: 2, modification: Acetyl (K).
[7] abbreviates: charge state: 2, modification: GlyGly (K).
Setting [8] is: charge state: 3, modification: GlyGly (K).
Setting [9] is: charge state: 2, modification: Butyryl.
Where [10] appears, read: charge state: 2, modification: Trimethyl (K).
The mark [11] stands for this setting: charge state: 3, modification: Trimethyl (K).
[12] abbreviates: charge state: 2, modification: HexNAc (ST).
Setting [13] is: charge state: 2, modification: Propionyl.
Setting [14] is: charge state: 3, modification: Propionyl.
[15] abbreviates: charge state: 2, modification: Succinyl.
[16] abbreviates: charge state: 3, modification: Succinyl.
Where [17] appears, read: charge state: 2, modification: hydroxyisobutyryl.
Setting [18] is: charge state: 3, modification: hydroxyisobutyryl.
Where [19] appears, read: charge state: 2, modification: Citrullination (R).
Setting [20] is: charge state: 2, modification: Nitro (Y).
Setting [21] is: charge state: 2, modification: Phospho (Y).
Setting [22] is: charge state: 2, modification: Dimethyl (K).
[23] abbreviates: charge state: 3, modification: Dimethyl (K).

On to “FSHSVQNSERGK [_FSHSVQNSER(Methyl (R))GK_]”, for which the collision cross section is 405.91 ± 1.3 Å² (charge state: 2, modification: Methyl (R)) and 465.06 ± 2.1 Å² (charge state: 3, modification: Methyl (R)).

Under setting [1], “AGPNASIISLKSDK [_AGPNASIISLK(Malonyl)SDK_]” had a collision cross section of 411.98 ± 0.71 Å².

Turning to “PASGAGAGAGAGKR [_PASGAGAGAGAGK(Formyl)R_]”, the collision cross section was determined as 349.96 ± 1.4 Å² under setting [2] and 453.33 ± 1.2 Å² under setting [3].

“LFVGGIKEDTEEHHLR [_LFVGGIK(Malonyl)EDTEEHHLR_]”: under setting [4], the collision cross section turned out to be 537.8 Å².

Turning to “PASGAGAGAGAGKR [_PASGAGAGAGAGK(Crotonyl)R_]”, the collision cross section is listed as 364.92 ± 9.9 Å² under setting [5] and 464.44 ± 2.8 Å² (charge state: 3, modification: Crotonyl).

The sequence ISALQGKLSK [_ISALQGK(Acetyl (K))LSK_] came in with a collision cross section under setting [6] of 353.22 ± 0.93 Å² and a collision cross section (charge state: 3, modification: Acetyl (K)) of 432.36 Å².

Turning to GAEKTEVAEPR [_GAEK(GlyGly (K))TEVAEPR_], the collision cross section is reported as 384.75 ± 0.88 Å² under setting [7] and 448.79 ± 1.6 Å² under setting [8].

As for “ASDTSSETVFGKR [_ASDTSSETVFGK(Gluratylation)R_]”, the collision cross section stood at 400.66 ± 0.51 Å² (charge state: 2, modification: Glutarylation) and 483.77 ± 1.7 Å² (charge state: 3, modification: Glutarylation).

As to “VDVEVPDVSLEGPEGKLK [_VDVEVPDVSLEGPEGK(Malonyl)LK_]”, the collision cross section worked out at 466.73 ± 0.63 Å² under setting [1] and 496.84 Å² under setting [4].

As to ISALQGKLSK [_ISALQGK(Biotin)LSK_], under “charge state: 2, modification: Biotin”, the collision cross section is reported as 376.95 ± 2.2 Å².

With “AGQKLIDVNHYAK [_AGQK(Malonyl)LIDVNHYAK_]”, the collision cross section is, setting by setting: under setting [1], 433.55 ± 0.56 Å²; under setting [4], 477.49 ± 1.8 Å².

Under setting [9], “ISSNFSSIIAEKLR [_ISSNFSSIIAEK(Butyryl)LR_]” gave a collision cross section of 436.86 ± 0.55 Å².

Take “DASTLQSQKAEGTGDAK [_DASTLQSQK(Trimethyl (K))AEGTGDAK_]”: the collision cross section was determined as 445.31 ± 1 Å² under setting [10] and 482.47 ± 1.6 Å² under setting [11].

Sequence “TLTPASSPVSSPSK [_TLTPASSPVSSPS(HexNAc (ST))K_]” registered a collision cross section under setting [12] of 404.79 Å².

“KYEEIDNAPEER [_K(Propionyl)YEEIDNAPEER_]”: the collision cross section is 411.41 ± 0.64 Å² under setting [13] and 491.8 Å² under setting [14].

The sequence “GFCFITYTDEEPVKK [_GFCFITYTDEEPVK(Trimethyl (K))K_]” returned a collision cross section under setting [10] of 480.23 Å².

Under setting [2], “VDVEVPDVSLEGPEGKLK [_VDVEVPDVSLEGPEGK(Formyl)LK_]” displayed a collision cross section of 460.51 ± 1.4 Å².

In the case of “TQAYQDQKPGTSGLR [_TQAYQDQK(Succinyl)PGTSGLR_]”, the collision cross section is on record as 434.09 ± 1.1 Å² under setting [15] and 483.43 ± 3.9 Å² under setting [16].

On to VGEFSGANKEK [_VGEFSGANK(Crotonyl)EK_], for which the collision cross section under setting [5] amounted to 370.98 ± 0.8 Å².

For the sequence “DLGKFQVATDALK [_DLGK(Succinyl)FQVATDALK_]”, the collision cross section was determined as 409.86 ± 0.37 Å² under setting [15] and 478.58 Å² under setting [16].

Consider “VGIDTPDIDIHGPEGKLK [_VGIDTPDIDIHGPEGK(hydroxyisobutyryl)LK_]”, for which the collision cross section runs as follows: under setting [17], 500.35 ± 0.99 Å²; under setting [18], 542.95 ± 2 Å².

“LQAAYAGDKADDIQK [_LQAAYAGDK(Trimethyl (K))ADDIQK_]” came in with a collision cross section under setting [10] of 440.52 ± 0.59 Å² and a collision cross section under setting [11] of 477.2 ± 1.8 Å².

Take “IVEKYGYTHLSAGELLR [_IVEK(Succinyl)YGYTHLSAGELLR_]”: the collision cross section is, setting by setting: under setting [15], 498.62 ± 0.45 Å²; under setting [16], 565.13 ± 1.1 Å².

Turning to “GGNFGGRGGYGGGGGGSR [_GGNFGGR(Citrullination (R))GGYGGGGGGSR_]”, the collision cross section runs as follows: under setting [19], 392.17 ± 1 Å²; (charge state: 3, modification: Citrullination (R)) 481.82 Å².

For “SYSVGASGSSSR [_SY(Nitro (Y))SVGASGSSSR_]”, under setting [20], the collision cross section was found to be 351.9 ± 1.2 Å².

Under setting [1], LQLEIDQKK [_LQLEIDQK(Malonyl)K_] gave a collision cross section of 367.76 ± 0.011 Å².

On to “GGPGSTLSFVGKR [_GGPGSTLSFVGK(Succinyl)R_]”, for which the collision cross section runs as follows: under setting [15], 387.5 ± 0.76 Å²; under setting [16], 434.26 Å².

Turning to TPNLYIYSKK [_TPNLYIYSK(GlyGly (K))K_], the collision cross section under setting [8] was 446.34 ± 1.1 Å².

“RLPTTGYLVYR [_R(Citrullination (R))LPTTGYLVYR_]”: the collision cross section under setting [19] was determined as 383.11 ± 0.23 Å².

SEASSEFAKK [_SEASSEFAK(GlyGly (K))K_]: the collision cross section is given as 362.55 ± 0.39 Å² under setting [7] and 429.79 ± 1.1 Å² under setting [8].

The sequence “VLDSGAPIKIPVGPETLGR [_VLDSGAPIK(Succinyl)IPVGPETLGR_]” displayed a collision cross section under setting [15] of 470.32 ± 0.95 Å².

Turning to TSYAQHQQVR [_TSY(Phospho (Y))AQHQQVR_], the collision cross section is, setting by setting: under setting [21], 370.43 ± 0.064 Å²; (charge state: 3, modification: Phospho (Y)) 475.13 ± 0.98 Å².

As for “VGVEVPDVNIEGPEGKLK [_VGVEVPDVNIEGPEGK(Trimethyl (K))LK_]”, the collision cross section is on record as 479.14 ± 17 Å² under setting [10] and 530.81 ± 6.1 Å² under setting [11].

For CYYGSDTAGR [_CY(Phospho (Y))YGSDTAGR_], under setting [21], the collision cross section is given as 358.39 Å².

For the sequence “DYSAPVNFISAGLKK [_DYSAPVNFISAGLK(Succinyl)K_]”, the collision cross section under setting [15] was found to be 438.82 ± 0.97 Å² and the collision cross section under setting [16] came out at 533.85 ± 1.6 Å².

For “IGNSYFKEEK [_IGNSYFK(Trimethyl (K))EEK_]”, the collision cross section reads like this: under setting [10], 378.87 ± 0.63 Å²; under setting [11], 441.97 ± 1.8 Å².

As to IISSIEQKEENK [_IISSIEQK(Malonyl)EENK_], the collision cross section under setting [1] worked out at 405.63 ± 0.59 Å².

As for “PSVSTKLISK [_PSVSTK(Trimethyl (K))LISK_]”, the collision cross section is recorded as 364.51 ± 0.61 Å² under setting [10] and 427.1 ± 2.4 Å² under setting [11].

“SNEEGSEEKGPEVR [_SNEEGSEEK(Butyryl)GPEVR_]” showed a collision cross section under setting [9] of 407.11 ± 0.23 Å² and a collision cross section (charge state: 3, modification: Butyryl) of 490.17 Å².

Take SGFGKFER [_SGFGK(Malonyl)FER_]: under setting [1], the collision cross section amounted to 335.56 Å².

As for LLFSNTAAQKLR [_LLFSNTAAQK(Malonyl)LR_], under setting [1], the collision cross section is 400.72 ± 0.029 Å².

Under setting [8], “VFIGNLNTLVVKKK [_VFIGNLNTLVVK(GlyGly (K))KK_]” yielded a collision cross section of 502.69 ± 1.1 Å².

As to “GGGYGGDRGGYGGDR [_GGGYGGDR(Citrullination (R))GGYGGDR_]”, under setting [19], the collision cross section is given as 373.62 ± 7.7 Å².

As for “VYIASSSGSTAIKK [_VYIASSSGSTAIK(Formyl)K_]”, the collision cross section by setting is: under setting [2], 408.95 ± 1.8 Å²; under setting [3], 497.96 ± 1.5 Å².

“ASAISIKLGSSK [_ASAISIK(Dimethyl (K))LGSSK_]” returned a collision cross section under setting [22] of 373.07 ± 0.36 Å² and a collision cross section under setting [23] of 447.62 Å².

As to “FSAYIKNSNPALNDNLEK [_FSAYIK(Malonyl)NSNPALNDNLEK_]”, the collision cross section is reported as 479.79 ± 4.5 Å² under setting [1] and 527.7 ± 2.3 Å² under setting [4].

With “VEELEGEITTLNHK [_VEELEGEIT(HexNAc (ST))TLNHK_]”, the collision cross section is, setting by setting: under setting [12], 442.1 ± 10 Å²; (charge state: 3, modification: HexNAc (ST)) 511.94 ± 0.96 Å².

SEASSEFAKK [_SEASSEFAK(Crotonyl)K_]: the collision cross section under setting [5] was found to be 355.23 ± 0.57 Å².

ASEALLKQLK [_ASEALLK(Acetyl (K))QLK_] showed a collision cross section under setting [6] of 373.11 ± 0.4 Å².

As for “SLEEEGAAHSGKR [_SLEEEGAAHSGK(Propionyl)R_]”, the collision cross section is given as 416.58 ± 0.64 Å² under setting [13] and 480.52 ± 0.66 Å² under setting [14].

TEVNSGFFYK [_TEVNSGFFY(Nitro (Y))K_] showed a collision cross section under setting [20] of 367.43 ± 0.8 Å².

As for “VGEFSGANKEK [_VGEFSGANK(Dimethyl (K))EK_]”, the collision cross section is given as 376.33 ± 1.2 Å² under setting [22] and 440.62 ± 2.8 Å² under setting [23].

The sequence “IDLPAENSNSETIIITGKR [_IDLPAENSNSETIIITGK(Methyl (K))R_]” showed a collision cross section (charge state: 3, modification: Methyl (K)) of 568.48 ± 0.62 Å².

In turn, “AAINQKLIETGER [_AAINQK(hydroxyisobutyryl)LIETGER_]” had a collision cross section under setting [17] of 409.76 ± 0.32 Å² and a collision cross section under setting [18] of 478.62 Å².

“GGPGSTLSFVGKR [_GGPGSTLSFVGK(Dimethyl (K))R_]” came in with a collision cross section under setting [22] of 393.41 ± 0.79 Å² and a collision cross section under setting [23] of 425.47 ± 2 Å².

On to “VGIDTPDIDIHGPEGKLK [_VGIDTPDIDIHGPEGK(Dimethyl (K))LK_]”, for which the collision cross section under setting [23] came to 537.38 ± 0.61 Å².

As to “GDKGDAGEPGR [_GDKGDAGEP(Hydroxyproline)GR_]”, the collision cross section is, setting by setting: (charge state: 2, modification: Hydroxyproline) 331.51 ± 0.55 Å²; (charge state: 3, modification: Hydroxyproline) 414.61 ± 0.42 Å².
